Laboratory results taken from patent US20240287172A1 (SCIRHOM, published 2024).

Tests used:
hiR2-FL-L589P-T7 = biological target: T1, hiR2-FL-L589P-T7 (human, UniProt Q6PJF5 1-856); experiment: FACS on MEF-DKO cells
T1 sequence: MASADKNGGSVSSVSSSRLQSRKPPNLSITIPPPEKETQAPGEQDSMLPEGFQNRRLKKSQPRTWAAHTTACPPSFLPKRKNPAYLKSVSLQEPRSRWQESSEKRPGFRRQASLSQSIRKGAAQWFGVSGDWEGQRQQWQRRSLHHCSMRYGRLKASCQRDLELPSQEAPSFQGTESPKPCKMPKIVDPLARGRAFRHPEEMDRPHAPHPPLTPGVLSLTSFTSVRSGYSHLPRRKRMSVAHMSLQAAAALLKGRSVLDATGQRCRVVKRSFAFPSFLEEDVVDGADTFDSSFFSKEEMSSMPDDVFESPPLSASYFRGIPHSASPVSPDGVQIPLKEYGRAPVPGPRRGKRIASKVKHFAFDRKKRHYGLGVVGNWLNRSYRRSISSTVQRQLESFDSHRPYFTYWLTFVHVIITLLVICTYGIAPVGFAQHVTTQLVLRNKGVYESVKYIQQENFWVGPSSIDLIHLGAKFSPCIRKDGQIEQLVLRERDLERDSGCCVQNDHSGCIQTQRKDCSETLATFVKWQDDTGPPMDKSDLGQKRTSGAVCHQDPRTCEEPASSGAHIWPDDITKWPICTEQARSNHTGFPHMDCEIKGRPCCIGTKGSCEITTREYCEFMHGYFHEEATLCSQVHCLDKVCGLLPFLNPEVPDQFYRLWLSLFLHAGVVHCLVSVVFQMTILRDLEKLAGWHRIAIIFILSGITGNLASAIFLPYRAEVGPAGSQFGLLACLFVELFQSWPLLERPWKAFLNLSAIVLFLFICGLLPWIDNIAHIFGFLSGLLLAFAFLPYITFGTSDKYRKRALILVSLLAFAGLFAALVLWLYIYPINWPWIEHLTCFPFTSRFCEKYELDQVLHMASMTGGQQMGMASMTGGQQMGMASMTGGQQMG

hiR2-FL-I566E-T7 = biological target: T2, hiR2-FL-I566E-T7 (human, UniProt Q6PJF5 1-856); experiment: FACS on MEF-DKO cells
T2 construct: on MEF-DKO cells; also called hiR2-FL-1566E-T7
T2 sequence: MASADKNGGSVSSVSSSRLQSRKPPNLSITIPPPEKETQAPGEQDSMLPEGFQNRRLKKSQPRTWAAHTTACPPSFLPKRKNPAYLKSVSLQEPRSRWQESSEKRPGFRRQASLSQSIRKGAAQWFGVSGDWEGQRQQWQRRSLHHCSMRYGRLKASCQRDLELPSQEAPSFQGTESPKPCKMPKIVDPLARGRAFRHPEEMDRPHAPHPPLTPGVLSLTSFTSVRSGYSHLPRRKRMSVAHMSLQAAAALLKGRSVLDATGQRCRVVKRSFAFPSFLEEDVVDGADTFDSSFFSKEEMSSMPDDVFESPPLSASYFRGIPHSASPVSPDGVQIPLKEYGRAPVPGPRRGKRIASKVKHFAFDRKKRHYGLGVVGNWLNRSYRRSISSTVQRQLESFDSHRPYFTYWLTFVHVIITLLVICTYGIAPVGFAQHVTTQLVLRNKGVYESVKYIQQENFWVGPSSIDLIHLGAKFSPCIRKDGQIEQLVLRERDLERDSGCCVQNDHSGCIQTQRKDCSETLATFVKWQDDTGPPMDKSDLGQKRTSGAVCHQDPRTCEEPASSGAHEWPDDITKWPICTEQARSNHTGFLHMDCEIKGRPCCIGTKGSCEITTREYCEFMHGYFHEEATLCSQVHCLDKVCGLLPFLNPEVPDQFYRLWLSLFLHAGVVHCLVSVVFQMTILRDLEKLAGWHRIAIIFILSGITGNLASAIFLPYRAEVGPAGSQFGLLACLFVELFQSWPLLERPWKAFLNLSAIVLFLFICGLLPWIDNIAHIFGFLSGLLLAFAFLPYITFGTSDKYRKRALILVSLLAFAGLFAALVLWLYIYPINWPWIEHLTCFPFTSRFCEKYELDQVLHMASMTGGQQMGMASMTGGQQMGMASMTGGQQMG

Binder	binding result (hiR2-FL-L589P-T7)	binding result (hiR2-FL-I566E-T7)
antibody 50 (antibody, V domains shown, mouse IgG, kappa light chain; also called clone #50; purified antibody 50) VH: QVQLQQSGAELVRPGASVKVSCKASGYAFSNYLIEWVKQRPGQGLEWIGVINPGSGFTKYNEKFKGKATLTADKSSSTAYMQLSSLTSEDSAVYFCARGLYRAMDYWGQGTSVTVSS VL: DIQMTQSPASQSASLGESVTITCLASQTIGTWLAWYQQKPGKSPQLLIYAAASLADGVPSRFSGGGSGTKFSFKISSLQAEDFVNYYCQQIYSTPYTFGGGTKLEIK	no binding (tested: 3 µg/ml)	–
antibody 5 (antibody, V domains shown, mouse IgG, kappa light chain; also called clone #5; purified antibody 5) VH: QVTLKESGPGILQPSQTLSLTCSFSGFSLSTFGMGVGWIRQPSGKGLEWLAHIWWDDEKYYNSALKSRLTISKATSKNQAFLKIANVDTADTATYYCARISNYGSNYWYFNVWGTGTTVTVSS VL: QVVLTQSPALMSASPGEKVTMTCSAGSSVSCMYWYQQKPGSSPRVLIYDTSNLASGVPARFTGSGSGTSYSLTISRMEAEDAASYYCQQWNSYPLTFGAGTKLELK	–	no binding (tested: 3 µg/ml)
